Data set [1] deals with the molecule itself. Briefly: crystal structure.
For data set [2], the target named is native OspC type K (OspCK) on live B. burgdorferi strain 297 (B. burgdorferi (endogenous in strain 297)). Nature of the data set: flow cytometry on cells.
Data set [3] concerns the target OspC type B (OspCB) used in BLI (Borreliella burgdorferi, OspC type B …, UniProt Q44977). Briefly: BLI.

B1: Recombinant Outer surface protein C type A (OspCA), residues 38 to 201, homodimer (domain or fragment, B. burgdorferi B31, UniProt Q07337 38-201, looked up)
chain: KGPNLTEISKKITDSNAVLLAVKEVEALLSSIDEIAAKAIGKKIHQNNGLDTENNHNGSLLAGAYAISTLIKQKLDGLKNEGLKEKIDAAKKCSETFTNKLKEKHTDLGKEGVTDADAKEAILKTNGTKTKGAEELGKLFESVEVLSKAAKEMLANSVKELTSP
With B1, the “stoichiometry N” value in data set [1] is 2.

B2: human monoclonal antibody B11 IgG1 (antibody, V domains shown)
VH: QLQLQESGPGLVKPSQTLSLTCTLSGGSISSTSYYWGWIRQPPGSGLEWIGSMYHSGNTYYKSSLKGRVTISLDTSRTQFSLRLTSVTAADTAVYYCARLGDVFNSAMDVWGQGTTVIVSS
VL: EIVMTQSPVTLSVSPGERATLSCRASQSVGNNLAWYQHKPGQAPRLLIYDASTRATGIPGRFSGSGSGTEFTLTISSLQSEDFAVYYCQEYNNWPRYTFGQGAKLEIR
Consider B2, for which, in data set [2], the MFI was < 35. For the same molecule, in data set [3], the binding result is recorded as “no binding”.

Source of the values: doi:10.1101/2024.04.29.591597 (bioRxiv, 2024).
